B1: FC08 (antibody, V domains shown)
VH: VQLLQQSGAEVKKPGSSVKVSCKASGGTFSSYAISWVRQAPGQGLEWMGGIIPILGIANYAQKFQGRVTITADKSTSTAYMELSSLRSEDTAVYYCVRERGYSGYGAAYYFDYWGQGTLVTVSS
VL: QSVLTQPPSVSGAPGQRVTISCTGSSSNIGAGYDVHWYQQLPGTAPKLLIYGNSNRPSGVPDRFSGSKSGTSASLAITGLQAEDEADYYCQSYDSSLSGSVFGGGTKLTVL
B2: FC11 (antibody, V domains shown)
VH: EVQLLESGGGVVQPGRSLRLSCAASGFTFSYYGMHWVRQAPGTGLEWVAVISYDGSNEYYADSVKGRFTISRDNSKNTLYLQMNSLRAEDTAVYYCAKAMFLGDSSGLTGLDMDVWGQGTTVTVSS
VL: DIELTQSPGTLSLSPGERATLSCRASQSVSSYLAWYQQKPGQAPRLLIYDASNRATGIPARFSGSGSGTDFTLTISSLEPEDFALYYCQQRGNWPPTFGGGTKLEIK
B3: FC05 (antibody, V domains shown)
VH: VQLLEQSGAEVKKPGASVRVSCKVSGYTLPEVAMHWVRQAPGKGLEWMGGFDPEDGETIYAQKFQGRVTMTEDTSTDTAYMELSSLRSEDTAVYYCATTTPFSSSFWFDPWGQGTLVTVSS
VL: QSVLTQAPSVSGAPGQKVTISCSGSSSNIGNNYVSWYQQLPGTAPKLLIYDNNKRPSGIPDRFSGSKSGTSATLGITGLQTGDEADYYCGTWDSSLSAVVFGGGTKLTVL

Assays:
[1] = target: SARS-CoV-2 S蛋白 (spike) on live virus, 分离株 BetaCoV/JS03/human/2020 (SARS-CoV-2, UniProt P0DTC2 14-1273); test: cell-based or functional assay
[2] = target: 重组SARS-CoV-2刺突蛋白胞外区 (extra cellular domain of spike protein) (SARS-CoV-2, UniProt P0DTC2 14-1213); test: SPR, Biacore 8K, S-ECD coupled to a CM5 chip, antibody 125nM~7.8nM in solution
[3] = target: SARS-CoV-2 S蛋白 (spike) on live virus, 分离株 BetaCoV/JS03/human/2020 (SARS-CoV-2, UniProt P0DTC2 14-1273); test: cell-based or functional assay; remark: listed apart in the source

Binder | IC50(ng/ml), 体外中和实验 (live virus, Vero E6, CPE) [1] [ng/mL] | Kd [2] [nM] | IC50(ng/ml), 体外中和实验 (live virus, Vero E6, CPE) [3] [ng/mL]
B1 | 325 | 0.8 | 
B2 | 818 | 0.5 | 
B3 |  |  | 142
